Data reported in PMC3348928, “Ordered Self-Assembly Mechanism of a Spherical Oncoprotein Oligomer Triggered by Zinc Removal and Stabilized by an Intrinsically Disordered Domain” (PLoS ONE, 2012).

What was measured:
[1] = target: E7 (Human papillomavirus type 16) (UniProt P03129); details: cited from earlier work
[2] = target: Recombinant E7 HPV-16 protein (human papillomavirus type 16 E7 oncoprotein) (human papillomavirus type 16) (UniProt P03129); experiment: thioflavin T fluorescence kinetics; 10 mM sodium phosphate pH 7.0, 1 mM DTT, 20 µM ThT; triggered by 1.0 mM TPEN; 15 µM protein
[3] = target: Recombinant E7 HPV-16 protein (human papillomavirus type 16 E7 oncoprotein) (human papillomavirus type 16) (UniProt P03129); experiment: thioflavin T fluorescence kinetics; 10 mM sodium phosphate pH 7.0, 1 mM DTT, 20 µM ThT; triggered by 1.0 mM EDTA; 15 µM protein (Figure 3)
[4] = target: Recombinant E7 HPV-16 protein (human papillomavirus type 16 E7 oncoprotein) (human papillomavirus type 16) (UniProt P03129); experiment: thioflavin T fluorescence kinetics; ThT traces at different initial E7 concentrations after EDTA, analysed with the kinetically limited (KL) assembly model of Zlotnick; 10 mM sodium phosphate pH 7.0, 1 mM DTT, 20 µM ThT
[5] = target: the molecule itself; experiment: dynamic light scattering; 15 µM protein, 10 mM sodium phosphate pH 7.0, 1.0 mM DTT, 25°C; after addition of 1.0 mM EDTA (zinc removal); E7 at the plateau, E7C after 2 h and 24 h

E7 (from UniProt P03129)
Kd [1]: 1000 nM

Recombinant E7 HPV-16 protein (human papillomavirus type 16 E7 oncoprotein) (from UniProt P03129 1-98) (natural protein)
half-life of the slow oligomerization phase, TPEN [2]: < 6 min | half-life of the slow increase in ThT binding (oligomerisation phase) [3]: 10 min | half-life of the slow oligomerization phase, EDTA [3]: < 8 min | overall average time for each monomer added at 20 µM [4]: 28 s | z-nucleus size n (KL model) [4]: 1.2

B1: E7 HPV-16 C-terminal domain, spanning residues 40-98 (domain or fragment, human papillomavirus type 16, UniProt P03129 40-98, looked up)
chain: GPAGQAEPDRAHYNIVTFCCKCDSTLRLCVQSTHVDIRTLEDLLMGTLGIVCPICSQKP
notes: The introduction gives 58 amino acids for E7C, but residues 40-98 are 59; also called E7C; source: recombinant, expressed and purified as previously described [52]
binding result [5]: binds
